Experimental data from paper PMC12267440, “Human glycogenins maintain glucose homeostasis by regulating glycogen metabolism” (Nature Communications, 2025).

T1: Homo sapiens glycogen synthase GS2 (GYS2), amino acids 1-703 (human, UniProt P54840 1-703)
T1 construct: glycogen synthase GS2 (GYS2), Homo sapiens, UniProt P54840, amino acids 1-703; The methods say that the His tag was put at the N-terminus of 'GS' without telling GS1 and GS2 apart; source: baculovirus (Bac-to-Bac), purified with GYG2
T1 sequence (looked up): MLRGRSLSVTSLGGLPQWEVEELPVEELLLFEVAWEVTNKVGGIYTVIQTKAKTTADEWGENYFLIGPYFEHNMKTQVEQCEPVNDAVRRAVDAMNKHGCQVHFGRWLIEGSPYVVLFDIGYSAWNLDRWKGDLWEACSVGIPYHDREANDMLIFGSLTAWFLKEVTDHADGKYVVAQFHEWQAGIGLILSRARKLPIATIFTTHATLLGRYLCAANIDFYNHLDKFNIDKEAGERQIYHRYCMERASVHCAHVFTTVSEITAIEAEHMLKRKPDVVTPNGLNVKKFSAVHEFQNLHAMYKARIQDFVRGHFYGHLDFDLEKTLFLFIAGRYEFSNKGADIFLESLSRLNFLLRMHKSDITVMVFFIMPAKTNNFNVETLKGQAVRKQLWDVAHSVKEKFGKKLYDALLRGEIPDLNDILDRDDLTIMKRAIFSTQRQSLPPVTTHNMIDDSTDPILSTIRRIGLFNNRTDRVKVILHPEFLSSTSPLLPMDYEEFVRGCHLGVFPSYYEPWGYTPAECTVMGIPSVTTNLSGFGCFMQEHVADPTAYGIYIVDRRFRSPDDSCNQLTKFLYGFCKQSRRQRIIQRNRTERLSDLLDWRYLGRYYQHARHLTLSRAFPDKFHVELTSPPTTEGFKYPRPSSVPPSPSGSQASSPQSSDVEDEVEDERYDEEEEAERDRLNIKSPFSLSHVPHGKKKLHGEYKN

B1: Homo sapiens glycogen synthase GS1 (GYS1), amino acids 1-737, N-terminal hexahistidine tag (enzyme, human, UniProt P13807 1-737, looked up)
chain: MPLNRTLSMSSLPGLEDWEDEFDLENAVLFEVAWEVANKVGGIYTVLQTKAKVTGDEWGDNYFLVGPYTEQGVRTQVELLEAPTPALKRTLDSMNSKGCKVYFGRWLIEGGPLVVLLDVGASAWALERWKGELWDTCNIGVPWYDREANDAVLFGFLTTWFLGEFLAQSEEKPHVVAHFHEWLAGVGLCLCRARRLPVATIFTTHATLLGRYLCAGAVDFYNNLENFNVDKEAGERQIYHRYCMERAAAHCAHVFTTVSQITAIEAQHLLKRKPDIVTPNGLNVKKFSAMHEFQNLHAQSKARIQEFVRGHFYGHLDFNLDKTLYFFIAGRYEFSNKGADVFLEALARLNYLLRVNGSEQTVVAFFIMPARTNNFNVETLKGQAVRKQLWDTANTVKEKFGRKLYESLLVGSLPDMNKMLDKEDFTMMKRAIFATQRQSFPPVCTHNMLDDSSDPILTTIRRIGLFNSSADRVKVIFHPEFLSSTSPLLPVDYEEFVRGCHLGVFPSYYEPWGYTPAECTVMGIPSISTNLSGFGCFMEEHIADPSAYGIYILDRRFRSLDDSCSQLTSFLYSFCQQSRRQRIIQRNRTERLSDLLDWKYLGRYYMSARHMALSKAFPEHFTYEPNEADAAQGYRYPRPASVPPSPSLSRHSSPHQSEDEEDPRNGPLEEDGERYDEDEEAAKDRRNIRAPEWPRRASCTSSTSGSKRNSVDTATSSSLSTPSEPLSPTSSLGEERN
notes: glycogen synthase GS1 (GYS1), Homo sapiens, UniProt P13807, amino acids 1-737; No cleavage of the His tag is described; the complexes were captured on Ni-NTA by it; The cryo-EM complex is called heterooctameric (D2 symmetry imposed); source: Sf9, co-infected with a GYG baculovirus, purified (Ni-NTA, Superose 6); not shown: His6 (PreScission protease-cleavable), N-terminal, kept

Assays:
[1] = target: the molecule itself; experiment: cryo-EM structure; purified GS•GYG2 complex from SEC peak fractions at ~2 mg/mL; Titan Krios 300 keV; D2 symmetry imposed
[2] = target: B1; experiment: SEC; co-expressed in insect cells, captured on Ni-NTA by the His6 tag of GS, then Superose 6 16/60; SDS-PAGE and Western blot of peak fractions; settings: both partners purified
[3] = target: T1, Homo sapiens glycogen synthase GS2 …; experiment: as above; settings: both partners purified

Binder	binding result [2]	other results
B1	–	binding result [1]: binds
Homo sapiens wild-type GYG1 (glycogenin-1) (enzyme, human, UniProt P46976-2 1-333, looked up, autoglycosylated (smear on blots; glucose polymer on Y195), glycogenin-1 (GYG1), Homo sapiens, UniProt P46976-2; also called GYG1 (WT); source: Sf9, co-infected with GS baculovirus, purified with GS (Ni-NTA, Superose 6)) MTDQAFVTLTTNDAYAKGALVLGSSLKQHRTTRRLVVLATPQVSDSMRKVLETVFDEVIMVDVLDSGDSAHLTLMKRPELGVTLTKLHCWSLTQYSKCVFMDADTLVLANIDDLFDREELSAAPDPGWPDCFNSGVFVYQPSVETYNQLLHLASEQGSFDGGDQGILNTFFSSWATTDIRKHLPFIYNLSSISIYSYLPAFKVFGASAKVVHFLGRVKPWNYTYDPKTKSVKSEAHDPNMTHPEFLILWWNIFTTNVLPLLQQFGLVKDTCSYVNVEDVSGAISHLSLGEIPAMAQPFVSSEERKERWEQGQADYMGADSFDNIKRKLDTYLQ	binds	–
Homo sapiens GYG1 Y195F mutant (enzyme, human, UniProt P46976-2 1-333, looked up, glycogenin-1 (GYG1), Homo sapiens, UniProt P46976-2, autoglycosylation site mutated; source: Sf9, co-infected with GS baculovirus, purified with GS (Ni-NTA, Superose 6)) MTDQAFVTLTTNDAYAKGALVLGSSLKQHRTTRRLVVLATPQVSDSMRKVLETVFDEVIMVDVLDSGDSAHLTLMKRPELGVTLTKLHCWSLTQYSKCVFMDADTLVLANIDDLFDREELSAAPDPGWPDCFNSGVFVYQPSVETYNQLLHLASEQGSFDGGDQGILNTFFSSWATTDIRKHLPFIYNLSSISIFSYLPAFKVFGASAKVVHFLGRVKPWNYTYDPKTKSVKSEAHDPNMTHPEFLILWWNIFTTNVLPLLQQFGLVKDTCSYVNVEDVSGAISHLSLGEIPAMAQPFVSSEERKERWEQGQADYMGADSFDNIKRKLDTYLQ	binds	–
Homo sapiens wild-type GYG2 (glycogenin-2) (enzyme, human, UniProt O15488-1 1-501, looked up, glycogenin-2 (GYG2), Homo sapiens, UniProt O15488-1, full-length; Two vectors are named (MultiBac pACEBac1 with full-length GYG2; Bac-to-Bac with wild-type GYG2 O15488-1); source: Sf9, co-infected with GS baculovirus, purified with GS (Ni-NTA, Superose 6); also isolated alone) MSETEFHHGAQAGLELLRSSNSPTSASQSAGMTVTDQAFVTLATNDIYCQGALVLGQSLRRHRLTRKLVVLITPQVSSLLRVILSKVFDEVIEVNLIDSADYIHLAFLKRPELGLTLTKLHCWTLTHYSKCVFLDADTLVLSNVDELFDRGEFSAAPDPGWPDCFNSGVFVFQPSLHTHKLLLQHAMEHGSFDGADQGLLNSFFRNWSTTDIHKHLPFIYNLSSNTMYTYSPAFKQFGSSAKVVHFLGSMKPWNYKYNPQSGSVLEQGSASSSQHQAAFLHLWWTVYQNNVLPLYKSVQAGEARASPGHTLCHSDVGGPCADSASGVGEPCENSTPSAGVPCANSPLGSNQPAQGLPEPTQIVDETLSLPEGRRSEDMIACPETETPAVITCDPLSQPSPQPADFTETETILQPANKVESVSSEETFEPSQELPAEALRDPSLQDALEVDLAVSVSQISIEEKVKELSPEEERRKWEEGRIDYMGKDAFARIQEKLDRFLQ	–	binding result [3]: binds
Homo sapiens GYG2 Y228F mutant (enzyme, human, UniProt O15488-1 1-501, looked up, glycogenin-2 (GYG2), Homo sapiens, UniProt O15488-1, putative autoglycosylation site mutated; also called GYG2 Y229F mutant (methods); source: baculovirus (Bac-to-Bac), purified with GS) MSETEFHHGAQAGLELLRSSNSPTSASQSAGMTVTDQAFVTLATNDIYCQGALVLGQSLRRHRLTRKLVVLITPQVSSLLRVILSKVFDEVIEVNLIDSADYIHLAFLKRPELGLTLTKLHCWTLTHYSKCVFLDADTLVLSNVDELFDRGEFSAAPDPGWPDCFNSGVFVFQPSLHTHKLLLQHAMEHGSFDGADQGLLNSFFRNWSTTDIHKHLPFIYNLSSNTMFTYSPAFKQFGSSAKVVHFLGSMKPWNYKYNPQSGSVLEQGSASSSQHQAAFLHLWWTVYQNNVLPLYKSVQAGEARASPGHTLCHSDVGGPCADSASGVGEPCENSTPSAGVPCANSPLGSNQPAQGLPEPTQIVDETLSLPEGRRSEDMIACPETETPAVITCDPLSQPSPQPADFTETETILQPANKVESVSSEETFEPSQELPAEALRDPSLQDALEVDLAVSVSQISIEEKVKELSPEEERRKWEEGRIDYMGKDAFARIQEKLDRFLQ	binds	–
